The values below come from patent US20220177587A1, “METHODS AND USES OF VARIANT CD80 FUSION PROTEINS AND RELATED CONSTRUCTS” (Alpine Immune Sciences, Inc., priority 2018, published 2022).

B1: H18L, R29D, Y31L, Q33H, K36G, M38I, T41A, M43R, M47T, E81V, L85R, K89N, A91T, F92P, K93V, R94L, L97R, T130A, N149S (protein, UniProt P33681 35-288, looked up, variant H18L R29D Y31L Q33H K36G M38I T41A M43R M47T E81V L85R K89N A91T F92P K93V R94L L97R T130A N149S)
T-lymphocyte activation …: VIHVTKEVKEVATLSCGLNVSVEELAQTDILWHKEGKIVLAMRSGDTNIWPEYKNRTIFDITNNLSIVILALRPSDEGTYVCVVRKYENDTPVLEHRAEVTLSVKADFPTPSISDFEIPTSNIRRIICSASGGFPEPHLSWLENGEELSAINTTVSQDPETELYAVSSKLDFNMTTNHSFMCLIKYGHLRVNQTFNWNTTKQEHFPDNLLPSWAITLISVNGIFVICCLTYCFAPRCRERRRNERLRRESVRPV
B2: A91G, S129P (protein)
chain: VIHVTKEVKEVATLSCGHNVSVEELAQTRIYWQKEKKMVLTMMSGDMNIWPEYKNRTIFDITNNLSIVILALRPSDEGTYECVVLKYEKDGFKREHLAEVTLSVKADFPTPSISDFEIPTSNIRRIICPTSGGFPEPHLSWLENGEELNAINTTVSQDPETELYAVSSKLDFNMTTNHSFMCLIKYGHLRVNQTFNWNTTKQEHFPDN
B3: I69T, L70Q, A91G, T120S (protein)
chain: VIHVTKEVKEVATLSCGHNVSVEELAQTRIYWQKEKKMVLTMMSGDMNIWPEYKNRTIFDITNNLSIVTQALRPSDEGTYECVVLKYEKDGFKREHLAEVTLSVKADFPTPSISDFEIPSSNIRRIICSTSGGFPEPHLSWLENGEELNAINTTVSQDPETELYAVSSKLDFNMTTNHSFMCLIKYGHLRVNQTFNWNTTKQEHFPDN
modifications: CD80 v105 ECD
B4: Y31H, S129P (protein)
chain: VIHVTKEVKEVATLSCGHNVSVEELAQTRIHWQKEKKMVLTMMSGDMNIWPEYKNRTIFDITNNLSIVILALRPSDEGTYECVVLKYEKDAFKREHLAEVTLSVKADFPTPSISDFEIPTSNIRRIICPTSGGFPEPHLSWLENGEELNAINTTVSQDPETELYAVSSKLDFNMTTNHSFMCLIKYGHLRVNQTFNWNTTKQEHFPDN
modifications: CD80 v106 ECD
B5: R29D, Y31L, Q33H, K36G, M38I, T41A, M43R, M47T, E81V, L85R, K89N, A91T, F92P, K93V, R94L, S21P, P74L, Y80N, D90N, T130A, N149S, E162G (protein)
chain: VIHVTKEVKEVATLSCGHNVPVEELAQTDILWHKEGKIVLAMRSGDTNIWPEYKNRTIFDITNNLSIVILALRLSDEGTNVCVVRKYENNTPVLEHLAEVTLSVKADFPTPSISDFEIPTSNIRRIICSASGGFPEPHLSWLENGEELSAINTTVSQDPETGLYAVSSKLDFNMTTNHSFMCLIKYGHLRVNQTFNWNTTKQEHFPDN
B6: R29D, Y31L, Q33H, K36G, M38I, T41A, M43R, M47T, E81V, L85R, K89N, A91T, F92P, K93V, R94L, H18L, V68M, T130A (protein)
chain: VIHVTKEVKEVATLSCGLNVSVEELAQTDILWHKEGKIVLAMRSGDTNIWPEYKNRTIFDITNNLSIMILALRPSDEGTYVCVVRKYENDTPVLEHLAEVTLSVKADFPTPSISDFEIPTSNIRRIICSASGGFPEPHLSWLENGEELNAINTTVSQDPETELYAVSSKLDFNMTTNHSFMCLIKYGHLRVNQTFNWNTTKQEHFPDN
B7: V22A, R29D, Y31L, Q33H, K36G, M38I, T41A, M43R, M47T, E81V, L85R, K89N, A91T, F92P, K93V, R94L, V68M, T130A (protein)
chain: VIHVTKEVKEVATLSCGHNVSAEELAQTDILWHKEGKIVLAMRSGDTNIWPEYKNRTIFDITNNLSIMILALRPSDEGTYVCVVRKYENDTPVLEHLAEVTLSVKADFPTPSISDFEIPTSNIRRIICSASGGFPEPHLSWLENGEELNAINTTVSQDPETELYAVSSKLDFNMTTNHSFMCLIKYGHLRVNQTFNWNTTKQEHFPDN
B8: H18L, R29D, Y31L, Q33H, K36G, M38I, T41A, M43R, M47T, E81V, L85R, K89N, A91T, F92P, K93V, R94L, L97R, N149S, H188Q (protein)
chain: VIHVTKEVKEVATLSCGLNVSVEELAQTDILWHKEGKIVLAMRSGDTNIWPEYKNRTIFDITNNLSIVILALRPSDEGTYVCVVRKYENDTPVLEHRAEVTLSVKADFPTPSISDFEIPTSNIRRIICSTSGGFPEPHLSWLENGEELSAINTTVSQDPETELYAVSSKLDFNMTTNHSFMCLIKYGQLRVNQTFNWNTTKQEHFPDN
B9: R29D, Y31L, Q33H, K36G, M38I, T41A, M43R, M47T, E81V, L85R, K89N, A91T, F92P, K93V, R94F, N64S, I118T, T130A, N149S, K169I (protein)
chain: VIHVTKEVKEVATLSCGHNVSVEELAQTDILWHKEGKIVLAMRSGDTNIWPEYKNRTIFDITNSLSIVILALRPSDEGTYVCVVRKYENDTPVFEHLAEVTLSVKADFPTPSISDFETPTSNIRRIICSASGGFPEPHLSWLENGEELSAINTTVSQDPETELYAVSSILDFNMTTNHSFMCLIKYGHLRVNQTFNWNTTKQEHFPDN
B10: T28A, R29D, Y31L, Q33H, K36G, M38I, T41A, M43R, M47T, E81V, L85R, K89N, A91T, F92P, K93V, R94L, V104L, T130A, N149S (protein)
chain: VIHVTKEVKEVATLSCGHNVSVEELAQADILWHKEGKIVLAMRSGDTNIWPEYKNRTIFDITNNLSIVILALRPSDEGTYVCVVRKYENDTPVLEHLAEVTLSLKADFPTPSISDFEIPTSNIRRIICSASGGFPEPHLSWLENGEELSAINTTVSQDPETELYAVSSKLDFNMTTNHSFMCLIKYGHLRVNQTFNWNTTKQEHFPDN
B11: R29D, Y31L, Q33H, K36G, M38I, T41A, M43R, M47T, E81V, L85R, K89N, A91T, F92P, K93V, R94L, I118V, T120S, T130A, K169E, M174T (protein)
chain: VIHVTKEVKEVATLSCGHNVSVEELAQTDILWHKEGKIVLAMRSGDTNIWPEYKNRTIFDITNNLSIVILALRPSDEGTYVCVVRKYENDTPVLEHLAEVTLSVKADFPTPSISDFEVPSSNIRRIICSASGGFPEPHLSWLENGEELNAINTTVSQDPETELYAVSSELDFNTTTNHSFMCLIKYGHLRVNQTFNWNTTKQEHFPDN
B12: R29D, Y31L, Q33H, K36G, M38I, T41A, M43R, M47T, E81V, L85R, K89N, A91T, F92P, K93V, R94L, H18L, P74L, Y80N, T130A, R190S (protein)
chain: VIHVTKEVKEVATLSCGLNVSVEELAQTDILWHKEGKIVLAMRSGDTNIWPEYKNRTIFDITNNLSIVILALRLSDEGTNVCVVRKYENDTPVLEHLAEVTLSVKADFPTPSISDFEIPTSNIRRIICSASGGFPEPHLSWLENGEELNAINTTVSQDPETELYAVSSKLDFNMTTNHSFMCLIKYGHLSVNQTFNWNTTKQEHFPDN

The assay has as its system human pan T cells. The experiment in a line: Anti-CD3 coimmobilization assay, IFN-gamma. It counts as cell-based. As to conditions: Table E34; culture supernatant, 3 days. In outline: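 IFN-gamma in 3-day culture supernatants, quantified by ELISA, reflects costimulation. Human pan T cells or BC3 clone (100,000/well, Ex-Vivo 15) were placed on wells pre-adsorbed overnight with rCD80.Fc variants (1–80 nM) together with anti-CD3 OKT3 (1 nM or 4 nM), unbound protein removed.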
In the case of B1, the “Anti-CD3 IFN-gamma Coimmobilization Assay” value is 96 pg/mL.
The value for B2 was 0 pg/mL.
For the molecule B3, the “Anti-CD3 IFN-gamma Coimmobilization Assay” value is 509 pg/mL.
For the molecule B4, the “Anti-CD3 IFN-gamma Coimmobilization Assay” value was 76 pg/mL.
The value for B5 was 54 pg/mL.
The same measure for B6: 51 pg/mL.
The same measure for B7: 96 pg/mL.
B8: the “Anti-CD3 IFN-gamma Coimmobilization Assay” value is 125 pg/mL.
The value for B9 was 30 pg/mL; that for B10 was 116 pg/mL.
The same measure for B11: 141 pg/mL; for B12: 8 pg/mL.
